Reference: US10450368 (DUKE UNIVERSITY, dated 2019)

T1: SSB (UniProt P05455 1-408)
T1 sequence: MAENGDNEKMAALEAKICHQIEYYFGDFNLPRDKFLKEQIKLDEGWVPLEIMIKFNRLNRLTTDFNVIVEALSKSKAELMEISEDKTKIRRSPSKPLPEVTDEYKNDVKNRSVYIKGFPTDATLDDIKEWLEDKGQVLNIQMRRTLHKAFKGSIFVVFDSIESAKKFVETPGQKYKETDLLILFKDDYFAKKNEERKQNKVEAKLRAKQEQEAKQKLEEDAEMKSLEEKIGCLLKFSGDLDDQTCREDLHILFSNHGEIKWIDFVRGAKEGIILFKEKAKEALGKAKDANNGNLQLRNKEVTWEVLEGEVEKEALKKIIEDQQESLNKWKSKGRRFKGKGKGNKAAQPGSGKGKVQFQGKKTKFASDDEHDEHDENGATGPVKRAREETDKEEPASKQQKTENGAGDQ

T2: Scl-70 (UniProt P11387 1-765)
T2 sequence: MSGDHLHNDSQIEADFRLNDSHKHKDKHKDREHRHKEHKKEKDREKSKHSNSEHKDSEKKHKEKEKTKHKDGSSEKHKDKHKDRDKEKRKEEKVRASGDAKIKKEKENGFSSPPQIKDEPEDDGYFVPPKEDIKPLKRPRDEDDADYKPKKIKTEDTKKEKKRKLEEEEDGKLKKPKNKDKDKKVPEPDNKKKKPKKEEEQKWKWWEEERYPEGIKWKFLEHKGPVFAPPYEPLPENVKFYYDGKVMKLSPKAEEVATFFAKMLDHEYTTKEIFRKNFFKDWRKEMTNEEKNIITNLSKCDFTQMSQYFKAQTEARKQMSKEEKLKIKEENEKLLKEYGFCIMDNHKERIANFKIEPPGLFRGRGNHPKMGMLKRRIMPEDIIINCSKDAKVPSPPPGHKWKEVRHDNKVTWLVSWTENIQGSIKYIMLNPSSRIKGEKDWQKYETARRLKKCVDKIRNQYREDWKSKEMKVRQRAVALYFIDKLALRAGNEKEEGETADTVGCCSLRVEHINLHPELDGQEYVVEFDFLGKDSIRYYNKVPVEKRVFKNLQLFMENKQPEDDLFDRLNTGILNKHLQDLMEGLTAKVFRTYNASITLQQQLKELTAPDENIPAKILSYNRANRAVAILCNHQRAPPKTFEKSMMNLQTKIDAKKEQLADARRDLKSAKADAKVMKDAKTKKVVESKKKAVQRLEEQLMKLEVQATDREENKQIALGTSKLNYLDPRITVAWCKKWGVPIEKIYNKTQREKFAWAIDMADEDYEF

T3: Jo-1 (UniProt P12081 1-509)
T3 sequence: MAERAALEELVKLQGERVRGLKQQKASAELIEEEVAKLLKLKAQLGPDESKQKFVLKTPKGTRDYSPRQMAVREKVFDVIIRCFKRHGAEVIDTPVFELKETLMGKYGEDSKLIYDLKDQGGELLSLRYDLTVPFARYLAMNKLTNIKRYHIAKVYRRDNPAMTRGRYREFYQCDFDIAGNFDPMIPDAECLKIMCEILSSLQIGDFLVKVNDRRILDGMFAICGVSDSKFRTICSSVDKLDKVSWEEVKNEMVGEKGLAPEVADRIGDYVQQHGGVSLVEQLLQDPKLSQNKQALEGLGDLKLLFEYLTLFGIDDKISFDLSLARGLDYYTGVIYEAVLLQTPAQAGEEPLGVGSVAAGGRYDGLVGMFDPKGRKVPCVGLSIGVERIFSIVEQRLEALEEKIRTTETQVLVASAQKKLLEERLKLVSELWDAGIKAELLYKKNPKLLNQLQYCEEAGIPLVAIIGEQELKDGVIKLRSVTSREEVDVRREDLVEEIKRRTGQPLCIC

T4: Centromere B (UniProt P07199 1-599)
T4 construct: also called Cent B
T4 sequence: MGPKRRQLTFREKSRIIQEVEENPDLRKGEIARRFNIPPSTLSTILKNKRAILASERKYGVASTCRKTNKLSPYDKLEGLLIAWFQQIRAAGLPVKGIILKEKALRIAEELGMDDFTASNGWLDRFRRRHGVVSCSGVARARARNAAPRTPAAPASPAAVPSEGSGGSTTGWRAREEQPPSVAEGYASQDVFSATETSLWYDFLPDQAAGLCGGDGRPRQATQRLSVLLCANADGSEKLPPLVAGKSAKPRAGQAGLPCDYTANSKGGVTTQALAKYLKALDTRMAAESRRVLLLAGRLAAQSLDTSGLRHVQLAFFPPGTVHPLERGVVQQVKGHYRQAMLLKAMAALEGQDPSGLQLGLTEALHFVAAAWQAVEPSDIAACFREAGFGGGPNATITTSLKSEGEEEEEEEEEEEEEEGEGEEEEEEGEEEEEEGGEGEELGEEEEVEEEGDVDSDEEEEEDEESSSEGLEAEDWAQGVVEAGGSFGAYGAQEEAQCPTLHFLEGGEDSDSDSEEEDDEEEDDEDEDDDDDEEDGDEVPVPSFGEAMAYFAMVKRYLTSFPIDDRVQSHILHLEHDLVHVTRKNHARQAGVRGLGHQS

B1: CH235.13 (antibody, V domains shown)
VH: QVQLVQSGGGVKRPGSTTTISCVASGYSFNDYYIHWVRQAPGQGLEVLGFIDPSNGRTNYAGAFGDRFSMYRDKSMETLYMDLRNLRSDDTAMYYCVRNVGTAGSLLHYDHWGTGSKIIVSS
VL: EIVLTQSPATLSASPGERVTLTCRASRGVRNNVAWYQHNVGQSPRLLIYDASTRAPGIPARFSGSASGTEFTLAISSIQSEDFTLYYCHQYNNWWTFGQGTRVDIN
B2: CH556 (antibody, V domains shown)
VH: QVQLVQSGGTVKSPGTSVTLSCKTSGYNFIDYYIHWVRRAPGQRPELMGYIDPSHGRPDYEGKFRDRISLYRDTSTSVVYMDVRGLRLDDTALYYCVRGGGVEVSSNHYDHWGPGTMVFVSP
VL: ETTLTQSPDTLSASPGERVTLSCRAAQSVGSQVAWFRHIRGQPPRLLISGASTRAAGVPARFSGSGSGTDFTLTISGMQSEDFAEYFCQQYHMWWTFGQGTRVDKN
notes: also called CH235.11
B3: CH235 UCA (antibody, V domains shown)
VH: QVQLVQSGAEVKKPGASVKVSCKASGYTFTSYYMHWVRQAPGQGLEWMGIINPSGGSTSYAQKFQGRVTMTRDTSTSTVYMELSSLRSEDTAVYYCARDVGTEGSLLHFDYWGQGTLVTVSS
VL: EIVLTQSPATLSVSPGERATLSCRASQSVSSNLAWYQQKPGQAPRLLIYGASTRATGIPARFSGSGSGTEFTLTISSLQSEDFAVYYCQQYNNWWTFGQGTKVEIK
notes: also called unmutated common ancestor of the CH235 lineage
B4: CH555 (antibody, V domains shown)
VH: QVQLVQSGATVKKPRASVTLSCRTSGYNFIDYFIHWVRRAPGQRLEVMGYIDPSRGRPDYAPNFRDRVSLYRDTSMSIVYLDLRDLTPDDTAIYYCVRSEGTEGTVLHYDHWGPGTRVTVSP
VL: EIVLTQSPDTLSASPGERVTLSCRASQSVGTKVAWYRHVRGQPPRLLIYGASTRAAGIPARFSGGGSGTNFTLIINNFQSEDFAEYLCQQYKSWWTFGQGTKVDNK
notes: also called CH235.10

Target: CH0505_CON D7gp120/293i
Assay: ELISA

Binder | LogAUC
B1 | 6.23
B2 | 0.26
B3 | 0
B4 | 7.23

Target: T5, CH505w020.14D8gp120
T5 construct: also called CH505w20.14 gp120
Assay: ELISA

Binder | LogAUC
B1 | 6.14
B2 | 0.11
B3 | 0
B4 | 5.63

Target: T6, CH505w030.20D8gp120/293F
T6 construct: also called CH505w30.20 gp120
Assay: ELISA

Binder | LogAUC
B1 | 5.41
B2 | 0.69
B3 | 0
B4 | 5.62

Target: T7, CH505.w30.12D8gp120
T7 construct: also called CH505w30.12 gp120
Assay: ELISA

Binder | LogAUC
B1 | 1.05
B2 | 0
B3 | 0
B4 | 0

Target: CH505w136.B18D8gp120
Assay: ELISA

Binder | LogAUC
B1 | 1.76
B2 | 0.11
B3 | 0
B4 | 5.54

Target: CH505.M5D8gp120293F
Assay: ELISA

Binder | LogAUC
B1 | 6.53
B2 | 1.26
B3 | 0.24
B4 | 2.62

Target: CH505.M10D8gp120
Assay: ELISA

Binder | LogAUC
B1 | 6.38
B2 | 1.06
B3 | 0
B4 | 1.06

Target: CH505.M11D8gp120/293F
Assay: ELISA

Binder | LogAUC
B1 | 5.35
B2 | 0.11
B3 | 0
B4 | 5.05

Target: CH505.M19D8gp120
Assay: ELISA

Binder | LogAUC
B1 | 2.89
B2 | 0.09
B3 | 0
B4 | 0

Target: CH505.M21D8gp120/293F
Assay: ELISA

Binder | LogAUC
B1 | 0
B2 | 0.1
B3 | 0
B4 | 0

Target: CH505.M9D8gp120/293F
Assay: ELISA

Binder | LogAUC
B1 | 0
B2 | 0.23
B3 | 0
B4 | 0.07

Target: CH505.M7D8gp120/293F
Assay: ELISA

Binder | LogAUC
B1 | 0
B2 | 0
B3 | 0
B4 | 0.09

Target: T8, CH505.TF mutant gp120 M6 (HIV-1)
T8 construct: domain: gp120
Assay: ELISA

Binder | LogAUC
B1 | 6.07
B2 | 0.09
B3 | 0
B4 | 5.67

Target: T9, CH505.TF mutant gp120 M8 (HIV-1)
T9 construct: domain: gp120
Assay: ELISA

Binder | LogAUC
B1 | 0
B2 | 0.29
B3 | 0
B4 | 0

Target: T10, CH505.TF mutant gp120 M20 (HIV-1)
T10 construct: domain: gp120
Assay: ELISA

Binder | LogAUC
B1 | 0
B2 | 0.28
B3 | 0
B4 | 0

Target: T1, SSB
Assay: ELISA, LogAUC grade

Binder | binding result
B3 | no binding

Target: T2, Scl-70
Assay: ELISA, LogAUC grade

Binder | binding result
B1 | no binding
B2 | no binding
B3 | no binding
B4 | no binding

Target: T3, Jo-1
Assay: ELISA, LogAUC grade

Binder | binding result
B3 | no binding

Target: T4, Centromere B
Assay: ELISA, LogAUC grade

Binder | binding result
B3 | no binding
